Data taken from the supplement of paper PMC9112550, “Optimization of the antimicrobial peptide Bac7 by deep mutational scanning” (BMC Biology, 2022).

What follows are sequences tested on Escherichia coli TOP10 (assay: shrunken log2 fold change of peptide-encoding DNA abundance (4.5 h post-induction vs induction); higher = less antimicrobial activity (less host growth inhibition)). Details: time post-induction: 4.5 h; library: site-saturation at positions 5, 18, 19, 20.
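Also: peptides expressed intracellularly from a pBAD plasmid library in pooled LB shake-flask culture, induced with 0.3% L-arabinose, DNA abundance read by NGS, three biological replicates, DESeq2 with apeglm shrinkage.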

| Sequence | shrunken log2 fold change |
| --- | --- |
| RRIRGRPPRLPRPRPRPMKNPRP | 0.68 |
| RRIRFRPPRLPRPRPRPPDWPRP | 0.701 |
| RRIRERPPRLPRPRPRPYYSPRP | -0.0755 |
| RRIRKRPPRLPRPRPRPMHTPRP | 0.192 |
| RRIRPRPPRLPRPRPRPLNTPRP | -0.482 |
| RRIRFRPPRLPRPRPRPYLLPRP | -1.11 |
| RRIRVRPPRLPRPRPRPRQWPRP | 0.236 |
| RRIRERPPRLPRPRPRPHVCPRP | -0.0153 |
| RRIRIRPPRLPRPRPRPFDGPRP | -0.262 |
| RRIRQRPPRLPRPRPRPPMSPRP | -0.139 |
| RRIRMRPPRLPRPRPRPQDYPRP | -0.0945 |
| RRIRTRPPRLPRPRPRPFQEPRP | 0.00783 |
| RRIRARPPRLPRPRPRPLCHPRP | 0.173 |
| RRIRIRPPRLPRPRPRPMQLPRP | 3.42 |
| RRIRGRPPRLPRPRPRPYFDPRP | -0.00956 |
| RRIRYRPPRLPRPRPRPWWTPRP | -0.333 |
| RRIRFRPPRLPRPRPRPHPNPRP | -0.31 |
| RRIRTRPPRLPRPRPRPSLEPRP | -0.0452 |
| RRIRLRPPRLPRPRPRPDIKPRP | -0.145 |
| RRIRQRPPRLPRPRPRPETHPRP | 0.0176 |
| RRIRMRPPRLPRPRPRPFGPPRP | -0.159 |
| RRIRARPPRLPRPRPRPKFWPRP | 0.696 |
| RRIRQRPPRLPRPRPRPESQPRP | -0.0174 |
| RRIRDRPPRLPRPRPRPRAIPRP | 0.108 |
| RRIRVRPPRLPRPRPRPNKWPRP | -0.138 |

| Sequence | shrunken log2 fold change |
| --- | --- |
| RRIRQRPPRLPRPRPRPELTPRP | 0.232 |
| RRIRVRPPRLPRPRPRPFMVPRP | -0.43 |
| RRIRRRPPRLPRPRPRPAPHPRP | 0.858 |
| RRIRNRPPRLPRPRPRPRLVPRP | 0.114 |
| RRIRKRPPRLPRPRPRPMTYPRP | -0.212 |
| RRIRGRPPRLPRPRPRPMRDPRP | 0.947 |
| RRIRNRPPRLPRPRPRPYDNPRP | -0.897 |
| RRIRSRPPRLPRPRPRPIPWPRP | -0.121 |
| RRIRNRPPRLPRPRPRPKFQPRP | -0.505 |
| RRIRLRPPRLPRPRPRPSFQPRP | -0.514 |
| RRIRGRPPRLPRPRPRPRIHPRP | 0.273 |
| RRIRRRPPRLPRPRPRPGAIPRP | 0.179 |
| RRIRHRPPRLPRPRPRPIVFPRP | -0.103 |
| RRIRCRPPRLPRPRPRPCLCPRP | -0.185 |
| RRIRIRPPRLPRPRPRPNWAPRP | 0.0373 |
| RRIRARPPRLPRPRPRPHNFPRP | -0.108 |
| RRIRIRPPRLPRPRPRPRSKPRP | -0.251 |
| RRIRMRPPRLPRPRPRPDSGPRP | -0.01 |
| RRIRTRPPRLPRPRPRPQWSPRP | -0.431 |
| RRIRNRPPRLPRPRPRPSSSPRP | -0.0202 |
| RRIRWRPPRLPRPRPRPARIPRP | 0.176 |
| RRIRFRPPRLPRPRPRPMSPPRP | -0.0304 |
| RRIRFRPPRLPRPRPRPPHPPRP | 0.615 |
| RRIRERPPRLPRPRPRPIHNPRP | -0.659 |
| RRIRDRPPRLPRPRPRPAWLPRP | 0.266 |

| Sequence | shrunken log2 fold change |
| --- | --- |
| RRIRIRPPRLPRPRPRPFDMPRP | -0.142 |
| RRIRQRPPRLPRPRPRPSRQPRP | -0.101 |
| RRIRPRPPRLPRPRPRPHENPRP | -0.0875 |
| RRIRVRPPRLPRPRPRPSGFPRP | -0.131 |
| RRIRPRPPRLPRPRPRPTYWPRP | -0.00192 |
| RRIRVRPPRLPRPRPRPAALPRP | 0.0637 |
| RRIRSRPPRLPRPRPRPKWSPRP | -0.132 |
| RRIRIRPPRLPRPRPRPYYHPRP | -0.839 |
| RRIRHRPPRLPRPRPRPMKTPRP | -0.0218 |
| RRIRFRPPRLPRPRPRPRIWPRP | 0.051 |
| RRIRNRPPRLPRPRPRPPIPPRP | -0.0646 |
| RRIRWRPPRLPRPRPRPIHDPRP | -0.118 |
| RRIRYRPPRLPRPRPRPFLTPRP | -0.871 |
| RRIRYRPPRLPRPRPRPLQHPRP | -0.688 |
| RRIRTRPPRLPRPRPRPMKSPRP | -0.203 |
| RRIRVRPPRLPRPRPRPKCNPRP | -0.181 |
| RRIRRRPPRLPRPRPRPSKKPRP | 0.144 |
| RRIRKRPPRLPRPRPRPFEQPRP | 0.0483 |
| RRIRLRPPRLPRPRPRPPLNPRP | 0.0486 |
| RRIRWRPPRLPRPRPRPIKPPRP | -0.0158 |
| RRIRCRPPRLPRPRPRPGKDPRP | 0.124 |
| RRIRKRPPRLPRPRPRPGKDPRP | 0.173 |
| RRIRTRPPRLPRPRPRPNHNPRP | -0.914 |
| RRIRDRPPRLPRPRPRPDVFPRP | 0.07 |
| RRIRNRPPRLPRPRPRPEHTPRP | -0.0129 |

| Sequence | shrunken log2 fold change |
| --- | --- |
| RRIRDRPPRLPRPRPRPARMPRP | 0.584 |
| RRIRMRPPRLPRPRPRPGVPPRP | 0.671 |
| RRIRKRPPRLPRPRPRPFESPRP | 0.0457 |
| RRIRYRPPRLPRPRPRPKVKPRP | -0.233 |
| RRIRFRPPRLPRPRPRPTDAPRP | 0.00734 |
| RRIRDRPPRLPRPRPRPSDLPRP | 0.0645 |
| RRIRARPPRLPRPRPRPYWRPRP | -0.096 |
| RRIRNRPPRLPRPRPRPKTLPRP | -0.134 |
| RRIRCRPPRLPRPRPRPYKYPRP | -0.551 |
| RRIRHRPPRLPRPRPRPEGWPRP | 0.695 |
| RRIRIRPPRLPRPRPRPCALPRP | 0.00316 |
| RRIRCRPPRLPRPRPRPIQVPRP | -0.191 |
| RRIRMRPPRLPRPRPRPWFSPRP | -0.0415 |
| RRIRQRPPRLPRPRPRPDINPRP | -0.412 |
| RRIRIRPPRLPRPRPRPSHQPRP | 0.0866 |
| RRIRFRPPRLPRPRPRPEMDPRP | -0.00136 |
| RRIRNRPPRLPRPRPRPICSPRP | -0.0669 |
| RRIRHRPPRLPRPRPRPHDMPRP | -0.291 |
| RRIRGRPPRLPRPRPRPLMNPRP | 0.303 |
| RRIRKRPPRLPRPRPRPACNPRP | -0.0224 |
| RRIRMRPPRLPRPRPRPILPPRP | 0.0577 |
| RRIRWRPPRLPRPRPRPGQYPRP | 0.0716 |
| RRIRLRPPRLPRPRPRPIPDPRP | 0.00718 |
| RRIRHRPPRLPRPRPRPEASPRP | 0.0128 |
| RRIRSRPPRLPRPRPRPCFWPRP | 0.294 |

| Sequence | shrunken log2 fold change |
| --- | --- |
| RRIRGRPPRLPRPRPRPRCNPRP | 0.551 |
| RRIRSRPPRLPRPRPRPCDVPRP | -0.0124 |
| RRIRYRPPRLPRPRPRPDAYPRP | -0.599 |
| RRIRYRPPRLPRPRPRPVCLPRP | -0.365 |
| RRIRDRPPRLPRPRPRPCLEPRP | 0.103 |
| RRIRKRPPRLPRPRPRPQCMPRP | 0.0247 |
| RRIRYRPPRLPRPRPRPQQNPRP | -0.421 |
| RRIRHRPPRLPRPRPRPINIPRP | -1.01 |
| RRIRVRPPRLPRPRPRPQNAPRP | 0.00238 |
| RRIRIRPPRLPRPRPRPCFMPRP | -0.378 |
| RRIRPRPPRLPRPRPRPEHYPRP | -0.106 |
| RRIRCRPPRLPRPRPRPTFFPRP | 0.114 |
| RRIRSRPPRLPRPRPRPAINPRP | -0.131 |
| RRIRTRPPRLPRPRPRPTEEPRP | 0.12 |
| RRIRMRPPRLPRPRPRPWWYPRP | -1.27 |
| RRIRTRPPRLPRPRPRPNKAPRP | -0.0944 |
| RRIRSRPPRLPRPRPRPACTPRP | 0.28 |
| RRIRPRPPRLPRPRPRPDDIPRP | -0.0962 |
| RRIRIRPPRLPRPRPRPGGEPRP | -0.063 |
| RRIRWRPPRLPRPRPRPSETPRP | 0.0208 |
| RRIRNRPPRLPRPRPRPNFDPRP | 0.215 |
| RRIRHRPPRLPRPRPRPGQGPRP | -0.104 |
| RRIRGRPPRLPRPRPRPGHTPRP | 0.0237 |
| RRIRVRPPRLPRPRPRPMCAPRP | 0.137 |
| RRIRHRPPRLPRPRPRPPSDPRP | 0.146 |
